According to patent publication US20160347814A1:

Target: Inducible counterpart receptor for VSTM5 on anti-CD3 activated human CD4+ T cells
Experiment: FACS on anti-CD3 activated primary human CD4+ T cells, 100 ug/ml; background of the isotype control on the whole cells

Synagis (Palivizumab, anti-RSV humanized IgG1 mAb) (antibody)
gMFI: 0.335
